T1: human IL-2Rβ (human, UniProt P14784 27-240, limits assumed)
T1 construct: also called hIL-2Rβ; IL-2 receptor beta
T1 sequence (looked up): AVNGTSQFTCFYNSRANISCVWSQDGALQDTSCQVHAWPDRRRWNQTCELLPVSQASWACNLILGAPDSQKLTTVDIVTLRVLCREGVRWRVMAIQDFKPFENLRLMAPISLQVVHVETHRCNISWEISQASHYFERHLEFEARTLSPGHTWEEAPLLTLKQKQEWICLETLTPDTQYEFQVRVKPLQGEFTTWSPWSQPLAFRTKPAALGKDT

B1: xmPD-1-hIL15Rasu-hIL15(E64Q/D30N N4K) (other)
heavy 1: HHHHHHHHGGGGSGSGGEVQLVESGGGLVKPGGSLELSCAASGFTFSSYWMSWVRQAPEKGLEWVAAISPSGGSTYYADSVKGRFTISRDNAKNTLFLQMTSLRSEDTAMYYCAKESWGAYYDLWGQGTTVTVSSASTKGPSVFPLAPCSRSTSESTAALGCLVKDYFPEPVTVSWNSGALTSGVHTFPAVLQSSGLYSLSSVVTVPSSNFGTQTYTCNVDHKPSNTKVDKTVERKCRVRCPRCPAPPVAGPSVFLFPPKPKDTLMISRTPEVTCVVVAVSHEDPEVQFNWYVDGVEVHNAKTKPREEQFNSTFRVVSVLTVVHQDWLNGKEYKCKVSNKGLPSSIEKTISKTKGQPREPQVYTLPPSREEMTKNQVSLTCLVKGFYPSDIAVEWESNGQPENNYKTTPPMLDSDGSFFLYSRLTVDKSRWQQGNVFSCSVMHEALHNHYTQKSLSLSPGK
heavy 2: EVQLVESGGGLVKPGGSLELSCAASGFTFSSYWMSWVRQAPEKGLEWVAAISPSGGSTYYADSVKGRFTISRDNAKNTLFLQMTSLRSEDTAMYYCAKESWGAYYDLWGQGTTVTVSSASTKGPSVFPLAPCSRSTSESTAALGCLVKDYFPEPVTVSWNSGALTSGVHTFPAVLQSSGLYSLSSVVTVPSSNFGTQTYTCNVDHKPSNTKVDKTVERKCEVECPECPAPPVAGPSVFLFPPKPKDTLMISRTPEVTCVVVAVSHEDPEVQFNWYVDGVEVHNAKTKPREEQFNSTFRVVSVLTVVHQDWLNGKEYKCKVSNKGLPSSIEKTISKTKGQPREPQVYTLPPSREEMTKNQVSLTCEVKGFYPSDIAVEWESNGQPENNYKTTPPMLDSDGSFFLYSKLTVDKSRWQQGNVFSCSVMHEALHNHYTQKSLSLSPGSGGGGGTSATATPGAITCPPPMSVEHADIWVKSYSLYSRERYICNSGFKRKAGTSSLTECVLNKATNVAHWTTPSLKCIRDPALVHQRPAPPSGGSGGGGSGGGSGGGGSGGNWVKVISDLKKIEDLIQSMHIDATLYTESNVHPSCKVTAMKCFLLELQVISLESGDASIHDTVQNLIILANNSLSSNGNVTESGCKECEELEEKNIKEFLQSFVHIVQMFINT
light: DIVMTQSPSSLSVSAGDKVTMSCRASQGISSWLAWYQQKPWQPPKLLIYKASTLESGVPDRFTGSGSGTDFTLTISSVQAEDLAVYYCQQSYSTPWTFGGGTKLEIKGTVAAPSVFIFPPSDEQLKSGTASVVCLLNNFYPREAKVQWKVDNALQSGNSQESVTEQDSKDSTYSLSSTLTLSKADYEKHKVYACEVTHQGLSSPVTKSFNRGEC
notes: not restated for this mutant
B2: xmPD-1-hIL15Rasu-hIL15(E64Q/D30N/M109A) (other)
heavy 1: B1 heavy 1
heavy 2: B1 heavy 2 with K559N, M664A
light: B1 light
notes: not restated for this mutant
B3: hIL-15 V49R/D30G (ligand)
chain: NWVNVISDLKKIEDLIQSMHIDATLYTESGVHPSCKVTAMKCFLLELQRISLESGDASIHDTVENLIILANNSLSSNGNVTESGCKECEELEEKNIKEFLQSFVHIVQMFINTGGGGSGHHHHHHHHGGGLNDIFEAQKIEWHE
B4: hIL-15 V49R/N4Y (ligand)
chain: B3 chain with N4Y, G30D
B5: hIL-15 V49R/H32F (ligand)
chain: B3 chain with G30D, H32F
B6: hIL-15 V49R/K11W (ligand)
chain: B3 chain with K11W, G30D
B7: hIL-15 V49R/N1R (ligand)
chain: B3 chain with N1R, G30D
B8: xmPD-1-hIL15Rasu-hIL15(E64Q/D30N/I68S/M109A) (other)
heavy 1: B1 heavy 1
heavy 2: B1 heavy 2 with K559N, I623S, M664A
light: B1 light
notes: not restated for this mutant
B9: xmPD-1-hIL15Rasu-hIL15(E64Q/D30N/N4K/M109A) (other)
heavy 1: B1 heavy 1
heavy 2: B1 heavy 2 with M664A
light: B1 light
notes: not restated for this mutant
B10: xmPD-1-hIL15Rasu-hIL15(E64Q/D30N/I68S) (other)
heavy 1: B1 heavy 1
heavy 2: B1 heavy 2 with K559N, I623S
light: B1 light
notes: not restated for this mutant
B11: hIL-15 V49R/V31K (ligand)
chain: B3 chain with G30D, V31K
B12: hIL-15 V49R/I68P (ligand)
chain: B3 chain with G30D, I68P
B13: hIL-15 V49R/L69P (ligand)
chain: B3 chain with G30D, L69P
B14: hIL-15 V49R/D30P (ligand)
chain: B3 chain with G30P
B15: hIL-15 V49R/L69K (ligand)
chain: B3 chain with G30D, L69K

Residue numbers refer to the chain shown, from its start. Names and notes keep the numbering of the source. Some results are limits rather than exact numbers.

The first experiment addresses T1, human IL-2Rβ. Put plainly: SPR, steady state, fusion captured. The method, then: (§1) Anti-human Fc sensor chips were prepared at 25° C. with a running buffer of 10 mM HEPES, 150 mM NaCl, 0.05% (v/v) Tween-20, pH 7.4. All surfaces of a Biacore CM4 sensor chip were activated with a 1:1 (v/v) mixture of 400 mM EDC and 100 mM NHS for 7 minutes, at a flow rate of 10 μL/min. An anti-human Fc reagent (Goat anti-human IgG Fc-γ specific, SouthernBiotech, Birmingham, Ala., Catalog #2014-01) was diluted to 50 μg/mL in 10 mM sodium acetate (pH 4.5) and injected on all flow cells for 7 minutes at 20 μL/min. All flow cells were blocked with 100 mM ethylenediamine in 200 mM Borate buffer pH 8.5 for 7 minutes at 10 μL/min.
(§2) All protein interaction experiments were performed at 37° C. using a running buffer of 10 mM HEPES, 150 mM NaCl, 0.05% (v/v) Tween-20, pH 7.4, 1 mg/mL BSA. Anti-PD-1-hIL-15 fusion proteins were captured at 10 μg/mL at a flow rate of 10 μL/min for 2 minutes. Different fusion proteins were captured in flow cells 2, 3 and 4. No protein was captured onto flow cell 1 which was used as a reference surface. […] After each analyte injection, dissociation was monitored for 5 minutes followed by regeneration of all flow cells with three 60-second injections of 75 mM phosphoric acid. […] For kinetic analysis, the double-referenced sensorgrams were fit globally to a simple 1:1 Langmuir with mass transport binding model using Biacore T200 Evaluation Software version 2.0. For steady-state affinity analysis, the double-referenced equilibrium binding responses were fit with a 1:1 Langmuir steady-state model using Biacore T200 Evaluation Software version 2.0.
For orientation: Kd means the constant that tells how readily two partners part at equilibrium. Higher therefore signals lower affinity. B1 showed a Kd of 767 nM.

B2 registered a Kd of 315 nM.

The target of another experiment is T1, human IL-2Rβ. Nature of the experiment: SPR, kinetic fit. On the technique in general: SPR reads the build-up and loss of mass on a sensor chip optically.
In turn, B3 came in with a Kd of 513 nM. Turning to B4, binding was put at a Kd of 117 nM.

For B5, the Kd stood at 315 nM. This Kd lies about 2.7-fold higher than the previous one. As to B6, the Kd came to 346 nM. Same read-out and setting: to B7 belongs 479 nM.

Another experiment addresses T1, human IL-2Rβ. Nature of the experiment: SPR, fusion captured. How it is done: as §1, §2
B8 returned a Kd above 1500 nM.

For the molecule B9, the Kd is above 3000 nM. The molecule B10 yielded a Kd above 3000 nM.

A further experiment deals with T2, human IL-15Rα (human, UniProt Q13261 31-205, limits assumed).
T2 construct: also called hIL-15Rα; IL-15 receptor alpha
T2 sequence (Q13261 31-205 limits assumed): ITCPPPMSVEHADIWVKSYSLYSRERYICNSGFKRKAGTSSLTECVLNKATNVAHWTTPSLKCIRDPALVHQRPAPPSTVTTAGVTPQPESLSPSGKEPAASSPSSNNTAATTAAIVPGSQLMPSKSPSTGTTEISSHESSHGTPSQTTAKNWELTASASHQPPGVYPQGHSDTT
Nature of the experiment: SPR, steady state.
Consider B6, for which binding was characterised by a dissociation constant (Kd) of 361 nM.

Molecule B7 registered a Kd of 243 nM.

The target in the next experiment is T1, human IL-2Rβ. Nature of the experiment: SPR, steady state.
B11: the Kd is above 500 nM.

The target of the next experiment is T2, human IL-15Rα. Nature of the experiment: SPR 37C.
On to B11, for which the binding result is recorded as “no binding”. Turning to B12, the binding result is listed as “no binding”. B13: the binding result was “no binding”.

Take B14: the binding result is recorded as “no binding”. For B15, the binding result is listed as “no binding”.

For the next experiment, the target named is T1, human IL-2Rβ. Nature of the experiment: SPR 37C.
B12: the binding result is listed as “no binding”. For B13, the binding result was “no binding”. B15: the binding result was “no binding”.

The next experiment concerns the target T2, human IL-15Rα. Nature of the experiment: SPR 37C, fusion captured by anti-human Fc. The method, then:
as §1, §2
In the case of B1, the binding result is reported as “no binding (tested: 3000 nM)”. With B8, the binding result is recorded as “no binding (tested: 3000 nM)”.

Turning to B9, the binding result is recorded as “no binding (tested: 3000 nM)”.

On to B10, for which the binding result is “no binding (tested: 3000 nM)”. With B2, the binding result was “no binding (tested: 3000 nM)”.

Source of the values: patent US20210324028A1 (Pfizer, published 2021).
